Results from the DeepSol protein solubility set.

Test: soluble on expression in E. coli; label from the status in PepcDB or PDB records

Row | Sequence | soluble on expression in E. coli
1 | MSLNRLSIPYSNKSLDYYFFVIQEASVKRAVLARSGEFQATNANFDNTRQLEQWQSLLLSRPSAIISDPIDSQAIVSAIRRYNREKIPVGIIDTPADGGDVAITVSFDNFQGGVMAAEEIVNRLITRYGRPKGTVLNCYGALASVAWRLRKEGMDSVFAKYPGITYLARPTDGQLEKMLSVTLSTLSEYPDLDAVHAPSDSPSRGIVTALQQKGRWKKIGEAGHVIFVNIDGEPIALKWIQDGYMDACISQDPVAYGEIAVDMIVKHALKGEAVPLGTYQDKKYFWESGEGHHHHHH | not soluble
2 | MSLNSKDIAKIVGVSRSTVSRVINNYPDIPQATREKVLKAIKEYNYYPNASARRLAGMKSSTLGIFIIDIKDNEKPHHVIENNEDLLYGNSYFSPFINAFIDQSNKAQYHVLVSTIYSSDELWKIQSAFYEKRIDGAVIIGSSSIDYSKIFEIMDKDSITVAVDLDMEKENTGTVMSVNINNYGGVSDAIDYLVELGHKDIAVITGDLNKLSGKIRFESFKDALLRHGLPLNNDFIAYGDFTENSGYEGMKKILASGKKPTAVFTSNDTMAIGAYRAIKEYGLKIPEDISVMGFDNSYISQYMSPPLTTVNVSLPEIAKCSIELLLDSINNKEIKNRQKTVNVQIVKRNSCKKEGHHHHHH | soluble
3 | MSLNTENIRIIALGGVGEIGKNLYVIEIDSDIFVVDAGLMHPENEMLGIDVVIPDISYLIERSDRVKAIFLTHGHEENIGGVFYCLNKLSVPVYGTKLTLALLKETLKQYGVNKKPDLREIHSKSVITFESTKVSFFKTNHSIPDSVGVSFKTSLGSIVCTGDFKFDQTPVLNQTSDIGEIAKIGNSGVLCLLSDSANAEKPGYTPSEALVGGEISDVMYNAENRVIIAVFASNFNRIQQVIDAALQNGRKLAVSGKNISAILQLAMKLGYVTADEDMFIPVQEVKKYPKREVAILTGDNHGEPLAALTRIAKQGHKQLDIEEGDTVLIASSPIPGQELVYSKAVDLLTRAGAQVVFAQKRVHVSGHGCQEELKLMLNLLKPKYLIPVNGEYRMQKAHSKLAEEIGMKRSDIFLIEKGDVVEFRGQNVKIGDKVHSGNILIDGLGVGDIGNIVLRDRRLLSQDGILIVVITLDKKKKHLVSGPEIITRGFVYVRESEQLIVEATELVRELVNESTENAVVEWSALKQTMREALNQFLYEKTKRKPMIIPIIMEEGHHHHHH | soluble
4 | MSLNTKLLILDDDIDILQMLKTVFIGEEMDIILESESEQALRFITTERPNVAIVDINLPRKSGLQVLQEAKKIDPGLSVIMTTGNKTTQNAIEAMKYGAYDYVTKPFDMNKLKSAVHKALECNLLSRKVRYTKDTKQLSEDEGHHHHHH | not soluble
5 | MSLNTQDFLAGYTKRFVDNKEEDMSLDEYLELCKTDPTAYANPAERLLMAIGEPELIDTRHDPVLSRIFSNKIIHHYEVFKDFYGMEEPIEQIVGFLKHAAQGLEETKQVLYLLGPVGGGKSSIAEKLKDLMERIPFYAIKGSPVFESPLSLFNPLEDGELLRERFGIPTRYLRYLMSPWAVKRLQEYNGDISKFRVIKVKPSRLKQIAIAKTEPGDENNQDISSLVGKVDIRKLEEFSQDDPDAYSYSGGLCRANRGLLEFVEMFKAPIKVLHPLLTATQEGNYNATEGLSAIPFEGIILAHSNESEWQSFRNNEGHHHHHH | not soluble
6 | MSLNTWNELTVHVNREAEEAVSNLLIETGSQGVAISDSADYLGQEDRFGELYPEVEQSDMIAITAYYPDTLDIEAVKADLADRLANFEGFGLATGSVNLDSQELVEEDWADNWKKYYEPARITHDLTIVPSWTDYEAKAGEKIIKMDPGMAFGTGTHPTTKMSLFALEQVLRGGETVIDVGTGSGVLSIASSLLGAKDIYAYDLDDVAVRVAQENIDMNPGTENIHVAAGDLLKGVQQEVDVIVANILADILIHLTDDAYRLVKDEGYLIMSGIISEKWDMVRESAEKAGFFLETHMVQGEWNACVFKKTDDISGVIGGEGHHHHHH | soluble
7 | MSLNVKIAALASHSALDVFDGAKDEGFQTIGLCKKGRERPYLEFKAIMDKCIILEDFKEIISDKVQSILLSENAIIVPNRSLAVYVGYDGIEKMKTKVFGNRYMLRWEERIGEKNYYKILNEAKISIPKLFKPEEIDRPVIVKLPEAKRKVERGFFFAVNKEDFEAKLNELLRNNVIDNEGLKNMVIEEFVFGAHFNLNYFYSPIFNRLELISVDRRIQSDWDSLYRLPADIQIKLGRIPKLIEVGHEPVTIRESLLEKVFEIGYRFVDATQKLEPPGIIGPFTLQVMVTPDLDLVVYDVAPRIGGGTNVYMGTGSQYSKFYFGKPISLGRRIALEIKHAIINNLTEKILTEGHHHHHH | soluble
8 | MSLNVRIYCRASTEGQHADRALTSLREFSKSKGWQIAGEYIENASGAKLERVELMRLLSEAQSGDLLLVEAIDRLSRLEHSAWVELKDTLNRKGLIIVSMDLPTSWQMVEMAGNDLTSGILRAVNAMLIDILATMARQDYETRRKRQQQGIERAKSEGIYIGRAKNQEAREIVREMLEQGVKPELIMKAAGISRATYYRIKNELLIVKSEGHHHHHH | soluble
9 | MSLNYNAPHRHAVIELSQSAVVHNLKVIKENTHAKEIMAVLKANAFSHGLPEMASLSITAGATRFGMAMLDEALILRDLGYIQPIDVLGLTDPRYARLAAERNITLAFSTKESIKAAAEQLAGTGLTLKVSLPVDTGLNRIGFKSREDLVAAIQEVSAQDTLIFQSMWTHFATADTPNVDYVDFQISEWQRLTHDLPVEPNEKHFANTGIATWYPEKINTDIVRLGIGLFGINGSVPIMSMPFELIPALSLKAKVVNSKPLKKGDAVGYGAEYHAPNDGYLITIPIGHSDGYPFNGSGMRALVADGQIGHIVGGVAMDQSMILVTNPVAVGTTVTLIGRVGDQSITMQDLAEHTQSSIVALMNDFAPRLQRIIVSEGHHHHHH | not soluble
10 | MSLPDHSLFRLRILPWCIALAMSGSYSSVWAEDDIQFDSRFLELKGDTKIDLKRFSSQGYVEPGKYNLQVQLNKQPLAEEYDIYWYAGEDDVSKSYACLTPELVAQFGLKEDVAKNLQWSHDGKCLKPGQLEGVEIKADLSQSALVISLPQAYLEYTWPDWDPPSRWDDGISGIIADYSITAQTRHEENGGDDSNEISGNGTVGVNLGPWRMRADWQTNYQHTRSNDDDDEFGGDDTQKKWEWSRYYAWRALPSLKAKLALGEDYLNSDIFDGFNYVGGSVSTDDQMLPPNLRGYAPDISGVAHTTAKVTVSQMGRVIYETQVPAGPFRIQDLGDSVSGTLHIRIEEQNGQVQEYDISTASMPYLTRPGQVRYKIMMGRPQEWGHHVEGGFFSGAEASWGIANGWSLYGGALGDENYQSAALGVGRDLSTFGAVAFDVTHSHTKLDKDTAYGKGSLDGNSFRVSYSKDFDQLNSRVTFAGYRFSEENFMTMSEYLDASDSEMVRTGNDKEMYTATYNQNFRDAGVSVYLNYTRHTYWDREEQTNYNIMLSHYFNMGSIRNMSVSLTGYRYEYDNRADKGMEGHHHHHH | not soluble
11 | MSLPGFEISAQFRFLLSVTALLVREEFGRAPSLGQTQSLLQNGFSSAVVEKVNQNLVSHLNVLDGLQPFMGRPRLHPEGPKDASRRIGPGDQEVKKLSPAMPSEQGEDYWNLLVEFPDSLSISEATLKIVTYHYFSMAGNNKFDGDKTRMGAPGIRFPGKGYAATEHIWIREGSSLLRSLLTSLPTSWVKGEGLPAWADRTAQKSRTGQQQFHALWEATWSSNTVVSYWEDGYLTGVRVGGIPPAWWPDIPNTKEGEKALKLWWDQRNEKDPLYFYLKNKKGEPKAQRIDFGRDGIDLAVEWAAEAKMMDLVEKTYKNVLPVDSYPTVDGDDEGIDKYQLVFFRHQVEGTASSPSIRASEVFLADRSVWAFDLSCDEQLRLRDNAQLVRDVYITLLGVFRRKSAADASREVATGWGAAVLDSLAVSQSDASDAYWRGVTDVYQKYLADLRVGEEITEELYRGIRSAALEAYDEVTAPYLAQYANEIYYVRASLVRSVNSKINTARDEGIGRIKEESNE | not soluble
12 | MSLPKIIPAIMAGGRGTRLWPLSRATAAKQFLKLIGEETLFQDTLKRVSDAKVYGAPLVITNEEFRFLVAEQARELGVTLSSIVLEPVPRNTAAAVAVAARIVADRFGEDALLLVLPSDHAITVDDTYKKCVRSACIAAAEGKLVTFGIQPTWPATGYGYIERGTYLGKDVHAVQCFVEKPSLEKAAALLETGNYYWNSGMFLFQAASIIAELEEHAPDVLSAVHAAVRGSTVDADFIRLAPESFSQAPSISIDYALMEKTANAAVVCSDFAWSDLGSWDAVWKNEEQNADGNVLKGNVTACNTKNSLVLSHTAHLAVQGMDGVAVIASEDAVFVGRLEEAHEIGNLVKRLAADENTARLTELHPTLIRPWGGYTTMLNGDRFQVRRLFVRPGKMLSLHKHFHRSEHWICVKGTAEVTIEDRVTILHENQSIYIPEGAIHRLGNPGKIMLELVEIQTGAYLGEDDIIRVADESRNEMPDSREGHHHHHH | not soluble
13 | MSLQDESPLLIITDSALVRDALVTHISETRRLLIADSHDVGMELALSFRPALILLDASSTDGEALALLRAFRSEPHLDDTFILVLSDEAAVLERLEASRAGADDFLRLPVDQAELTARVAVALRQARLSRRLRAYTRRIEEEMRLVADLQMRLLPAYTPYLASLRIDSFYQPSTEASGDYFDHFLLPGEDRLRVVIADASGHGARSAVLMTMVRTLFHASHAANTPLTDMLLEINTNLLDVVGNEPDFVTLFAADLDLRGNTLRYVNAGHCPALLRHPDGTTMRLSGTTPRLGFFGVRETERLVPFTPGTRLLLYTDGFHDCATASGRRLGIDRFLSLAEATMRRGGDVLSSLREDISTTFGEPPTWPDDVTALYIERKEEGHHHHHH | soluble
14 | MSLQEKQLKTIQNKIASWIKEIESAFIDELFSKIGPSKMLRSKLMLALLNEKTDAILLDKAFNLCAIVEMIQTASLLHDDVIDKAAMRRKLPSINALFGNFNAVMLGDVFYSKAFFELSKMGESIAKSLSNAVLRLSRGEIEDVFVGGSFNSDKQKYWRILEDKTAHFIEASLKSMAILLNKDAKMYADFGLNFGMAFQIIDDLLDITQDAKTLGKPNFSDFKEGKTTLPYLLLYEKLNQRDQGLLISYFKQDSHEIIEWTKEKFKQYGTIEETLKIAQVYSKKALEAIKGENNLILEKLAQDVIYRTFEGHHHHHH | soluble
15 | MSLQIAGKVVVVTGGGNGIGQALCEAFHKAGAAKVVVADLDQARAEAVAASIGGAAFKCDVANEADIKHVIEETERQFGPIDLFCSNAGIGGGFDPMAENAGGASDEPFMKSWMIHVMAHVYAARHLVPRYRARGGGYFLNTISAAGLLSQVGSPAYSATKHGAVGFAESLAIAHKAHNIRVSILCPQGVDTNMLRSIPKGPQSADGDLTAEQVAKDALQGIEQETFLILPHPQVIDYMRKKTEGHHHHHH | soluble
16 | MSLQIIEPDNLIKEGDLRSIRAKTLQSARGIISDRNGEALAVSVPVEAVWADPVAIYKEGGLVEKDRWYALADVLGLDRQEMMKKIEDNRSRRFIYLQRQVSPAMAKYIRELKLAGIGLKEESRRYYPAGEVSAHLVGVTGIDGHGLEGVERSFDSTLTGESGKSVTRKDKFGRVVENIALEEREEGKPIQLTIDQRLQAIAFRAVKQAMADYRATSASAVMLDVKTGAVLAMVNAPSYNPNNRNDWQSFKMRNRVITDAFEPGSTVKPFVVLAALANGIADKNTIIDTGDGTMQIGGSRVRDTSKVGKADLTLILKKSSNIGVAKLALEMPLEALLGMYSSVGLGEMSGLDLVGETIGIFPNRRRWSQFEIATLSFGYGLAITPIQLAHAYATLGNHGKYQPIHIIKGDQHGETRQVVDPKYVNQVLEMLETVTQPGGTATRAAVPGYRIAAKSGTSRKAIAGGYSDEYFAYTAGVAPVSDPRISLVVMVNEPQGDSYYGGAVAGPVFSEIMKGALQILNIAPDENRFQNEGHHHHHH | soluble
